Where no end group is shown, it is not given here.
What was measured:
[1] = target: T1, human mini-Sirt1 (aa 183-505-(GGGS)2-641-665) (Homo sapiens, UniProt Q96EB6); test: FdL assay, mini-Sirt1; type: biochemical; conditions: FdL-1 at substrate Km, 15% (v/v) DMSO, n = 3
T1 construct: aa 183-505-(GGGS)2-641-665; made in house; host or cells: E. coli CodonPlus(DE3)
T1 sequence (Q96EB6 with tags, fused parts or gaps limits assumed): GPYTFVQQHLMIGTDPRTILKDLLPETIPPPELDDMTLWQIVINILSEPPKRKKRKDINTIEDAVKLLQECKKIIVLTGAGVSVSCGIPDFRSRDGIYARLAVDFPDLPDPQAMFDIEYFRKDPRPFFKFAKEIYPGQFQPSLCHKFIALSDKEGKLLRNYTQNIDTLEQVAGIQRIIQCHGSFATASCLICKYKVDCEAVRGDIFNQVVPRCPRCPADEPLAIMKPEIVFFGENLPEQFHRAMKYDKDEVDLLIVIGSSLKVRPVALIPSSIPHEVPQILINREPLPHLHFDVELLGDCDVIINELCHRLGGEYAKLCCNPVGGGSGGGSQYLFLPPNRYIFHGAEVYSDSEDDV
Description: (§1) A human mini-Sirt1 construct (aa 183-505-(GGGS)2-641-665), as described in [27], was generated in a modified pET-19b with a TEV cleavage site. This construct and human full-length Sirt1 (fl-Sirt1) in pET-15b, Sirt1-(183-664) and Sirt1-(214-664) in pET-15b, mini-Sirt1-∆SBD (aa 214-505-(GGGS)2-641-665) and mini-Sirt1-∆ESA (aa 183–505) in a modified pET-19b with TEV cleavage site, Sirt2-(43-356) in a modified pET-19b with a His6-Sumo tag, Sirt3-(93-399) in a modified pET-32a with Trx-His6 tag and TEV cleavage site, hSirt3-(118-399) in pVFT3S (Sungkyunkwan University, Seoul, Republic of Korea) with His6-Trx tag and TEV cleavage site, Sirt5-(34-302) in pET-151/D-TOPO, and Sirt6-(1-355) in pQE80L.1 were purified as described. Shortly, proteins were expressed at 20 °C (mini-Sirt1 constructs at 16 °C) in E. coli CodonPlus(DE3), cell lysates were cleared by centrifugation, and proteins were purified via affinity chromatography using a nickel NTA column. After digestion with thrombin or TEV protease, proteins were re-run over the nickel NTA column, pooled, and concentrated. The samples were, then, subjected either directly to size exclusion chromatography in 50 mM Tris/HCl, pH 8.0, 150 mM NaCl, 1 mM TCEP, or to an ion exchange chromatography followed by size exclusion chromatography. Purified proteins (yield 1—4 mg/L expression culture) were concentrated to 12–18 mg/mL and shock frozen for storage at −80 °C.
(§2) For sirtuin deacetylation activity measurements, we used two well-characterized assays, a coupled enzymatic assay, and the so-called FdL assay, respectively.
Km values for FdL-1 were determined in the presence of 3 mM NAD^+ and Km values for NAD^+ in presence of 0.5 mM FdL-1 peptide. […] Reactions were incubated for 20 min, followed by a 1:1 addition of developer (2 mM NAM and 10 mg/mL trypsin in assay buffer). After incubation for 45 min at room temperature, fluorescence was measured with a FluoDia T70 (Photon Technology International Inc., Birmingham, NJ, USA) with an excitation wavelength of 365 nm and emission wavelength of 465 nm. […]

human Sirt3-(118-399) = test: Crystal structure of Sirt3/Tat peptide complexes; type: binding; conditions: Sirt3/Tat-37–59 at 1.95 Å; Sirt3/ac-Tat-46–54 at 1.65 Å
Description: For crystallization of the Sirt3 and Tat peptide complexes, 10 mg/mL human Sirt3-(118-399) in 20 mM Tris/HCl, pH 8.0, 150 mM NaCl, 5% (v/v) glycerol, 1 mM TCEP were incubated with 2 mM ac-Tat-46-54 or Tat-37-59 (the latter in 10% (v/v) DMSO) for 60 min at 20 °C. Both complexes were crystallized using the sitting-drop vapor-diffusion method at 20 °C with 100 mM MES, pH 6.0, 30% (w/v) PEG 200, 5% (w/v) PEG 3000 as reservoir solution for Sirt3/ac-Tat-46-54 and 100 mM CHES, pH 9.0, 20% (w/v) PEG 8000 for Sirt3/Tat-37-59. Crystals were cryoprotected with the respective reservoir solution supplemented with 25% (v/v) glycerol and flash-frozen in liquid nitrogen.
Diffraction data were collected at BESSY II, beamline MX14.1 operated by Helmholtz Zentrum Berlin (Berlin, Germany) at 0.9184 Å wavelength. Indexing, scaling, and merging of the Sirt3/ac-Tat-46-54 complex data were performed with XDSAPP [37]. The Sirt3/Tat-37–59 complex data were indexed and integrated with DIALS [38] and further processed with CCP4 programs Rebatch, Pointless, Aimless, and cTruncate, with 5% of the reflections assigned to Rfree with Uniqueify. The complex structures were phased by molecular replacement with PHASER [40] and using a Sirt3/ac-ACS/carba-NAD (PDB ID 4FVT) and a Sirt3/ADPr complex (PDB ID 4BVB), respectively, as a search model. […]

mini-Sirt1 = target: T2, mini-Sirt1 (Homo sapiens, UniProt Q96EB6); test: Deacetylation of ac-Tat-46–54 as substrate by mini-Sirt1; type: biochemical
T2 construct: aa 183-505-(GGGS)2-641-665; made in house; host or cells: E. coli CodonPlus(DE3)
T2 sequence (Q96EB6 with tags, fused parts or gaps limits assumed): T1 sequence (Q96EB6 with tags, fused parts or gaps limits assumed)
Description: as §2
Continuous coupled enzymatic sirtuin activity assays were conducted as described. […] For assays with Tat peptides, 5% (v/v) DMSO was added to all reactions to enhance peptide solubility. Reactions were monitored for 1 h at room temperature by absorption spectroscopy at 340 nm in a UV/vis plate reader (BioTek). The slope for the linear range (typically 5–25 min) was evaluated after background correction with measurements without NAD^+. Additional control reactions were run by either omitting enzyme or omitting peptide substrate to ensure that the signal measured reflects the NAD+-dependent deacetylation activity of the sirtuin.

[2] = target: T3, human full-length Sirt1 (fl-Sirt1) (Homo sapiens, UniProt Q96EB6); test: Continuous coupled enzymatic sirtuin activity assay, fl-Sirt1; type: biochemical; conditions: coupled-enzyme assay, n = 2
T3 construct: human full-length Sirt1 (fl-Sirt1) in pET-15b; made in house; host or cells: E. coli CodonPlus(DE3)
T3 sequence (Q96EB6 1-747): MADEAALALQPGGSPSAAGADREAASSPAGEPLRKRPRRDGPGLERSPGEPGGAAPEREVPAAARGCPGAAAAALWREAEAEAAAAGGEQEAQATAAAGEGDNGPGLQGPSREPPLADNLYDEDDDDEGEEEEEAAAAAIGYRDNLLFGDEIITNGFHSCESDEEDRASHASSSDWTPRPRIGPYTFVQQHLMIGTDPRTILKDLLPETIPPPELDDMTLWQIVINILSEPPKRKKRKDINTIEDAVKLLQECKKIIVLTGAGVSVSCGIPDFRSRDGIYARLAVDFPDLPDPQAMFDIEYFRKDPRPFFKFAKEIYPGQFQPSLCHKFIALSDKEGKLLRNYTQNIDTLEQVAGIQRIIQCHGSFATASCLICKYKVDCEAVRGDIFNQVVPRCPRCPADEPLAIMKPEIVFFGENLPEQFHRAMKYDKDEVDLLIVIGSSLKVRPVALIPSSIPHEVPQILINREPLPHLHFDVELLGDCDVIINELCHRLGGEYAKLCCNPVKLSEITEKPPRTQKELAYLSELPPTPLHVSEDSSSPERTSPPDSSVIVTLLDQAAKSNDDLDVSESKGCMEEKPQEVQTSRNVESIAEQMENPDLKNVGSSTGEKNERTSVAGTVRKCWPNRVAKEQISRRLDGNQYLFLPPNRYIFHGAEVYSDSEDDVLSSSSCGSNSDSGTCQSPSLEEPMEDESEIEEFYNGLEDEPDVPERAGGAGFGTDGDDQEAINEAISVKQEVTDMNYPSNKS
Description: A human mini-Sirt1 construct (aa 183-505-(GGGS)2-641-665), as described in [27], was generated in a modified pET-19b with a TEV cleavage site. This construct and human full-length Sirt1 (fl-Sirt1) in pET-15b, Sirt1-(183-664) and Sirt1-(214-664) in pET-15b, mini-Sirt1-∆SBD (aa 214-505-(GGGS)2-641-665) and mini-Sirt1-∆ESA (aa 183–505) in a modified pET-19b with TEV cleavage site, Sirt2-(43-356) in a modified pET-19b with a His6-Sumo tag, Sirt3-(93-399) in a modified pET-32a with Trx-His6 tag and TEV cleavage site, hSirt3-(118-399) in pVFT3S (Sungkyunkwan University, Seoul, Republic of Korea) with His6-Trx tag and TEV cleavage site, Sirt5-(34-302) in pET-151/D-TOPO, and Sirt6-(1-355) in pQE80L.1 were purified as described. […]
Continuous coupled enzymatic sirtuin activity assays were conducted as described. […] Reactions were monitored for 1 h at room temperature by absorption spectroscopy at 340 nm in a UV/vis plate reader (BioTek). The slope for the linear range (typically 5–25 min) was evaluated after background correction with measurements without NAD^+. Additional control reactions were run by either omitting enzyme or omitting peptide substrate to ensure that the signal measured reflects the NAD+-dependent deacetylation activity of the sirtuin.

[3] = target: T3, human full-length Sirt1 (fl-Sirt1); test: FdL deacetylation assay, fl-Sirt1; type: biochemical; conditions: FdL assay, 100 µM FdL-1, 500 µM NAD^+, pH 7.8, 37 °C; n = 2; read-out: IC50, fl-Sirt1, truncated Tat-Cys^− constructs
Description: as §1, with “Purified proteins (yield 1—4 mg/L expression culture) were concentrated to 12–18 mg/mL and shock frozen for storage at −80 °C.” left out

Sirt1 = conditions: FdL assay, wildtype Tat; ref [9]; read-out: IC50, Sirt1 (previously reported); cited from earlier work

## SYGRKKRRQ [Tat-46–54]
[1]; 37 °C, pH 7.8, ± s.d., read-out: IC50 (FdL assay), mini-Sirt1, non-acetylated Tat-46–54
  IC50: 131 ± 88.1 µM

## Tat-49–60: synthetic non-acetylated Tat fragment, residues 49–60 (RKKRRQRRRPSQ)
[1]; dose-dependent
  inhibition of mini-Sirt1 by synthetic Tat peptides (Figure 2F): weaker inhibition
[1]; titration
  inhibition of mini-Sirt1, titration (Figure 2G): neither Tat-31–49 nor Tat-49–60 alone was sufficient for significant inhibition

## ac-Tat-46–54: Lys50-acetylated Tat-46–54 peptide (SYGRK(Ac)KRRQ)
Human Sirt3-(118-399)
  binding site/mode in Sirt3 crystal structure: inserted in the substrate binding groove in the typical, β-sheet-like fashion
mini-Sirt1; Michaelis–Menten kinetics, mini-Sirt1, compared with ac-p53-Lys382, n = 3
  Sirt1-dependent deacetylation (as substrate): efficient Sirt1-dependent deacetylation, even slightly more efficient than for its standard substrate peptide ac-p53-Lys382
mini-Sirt1; time-course for deacetylation by mini-Sirt1, n = 3
  inhibitory effects at later time points of the deacetylation assay: did not observe any inhibitory effects at later time points
[2]; 100 µM ac-p53 as basal substrate
  effect on fl-Sirt1 activity upon addition to assay containing p53-peptide: expected increase of activity
[2]; fl-Sirt1, 100 µM ac-p53 as basal substrate
  onset of inhibition upon addition to assay containing p53-peptide: no indications of instant or delayed onset of inhibition

## residues 21–63 of Tat-Cys^−: construct also lacking the N-terminal region from aa 1–20 (ASNRAHAKKSAYHSQVAFITKGLGISYGRKKRRQRRRPSQGGQ)
[3]
  IC50: ~30 µM

## wildtype Tat: HIV1 transactivator of transcription protein, wildtype, as previously reported
Sirt1
  IC50: 3.5 µM

Reference: paper PMC10144703, “Molecular Mechanism of Sirtuin 1 Inhibition by Human Immunodeficiency Virus 1 Tat Protein” (Life, 2023)
